B1: NTF2-related export protein 2 (Homo sapiens), Q9NPJ8-3 (parent)
chain: MRKYRSHWSQGDREGYQRRSNYYEGPHTSHSSPADRTREEVVTPTLPEHTATRSQMATSLDFKTYVDQACRAAEEFVNIYYETMDKRRRALTRLYLDKATLIWNGNAVSGLDALNNFFDTLPSSEFQVNMLDCQPVHEQATQSQTTVLVVTSGTVKFDGNKQHFFNQNFLLTAQSTPNNTVWKIASDCFRFQDWSSS
partner: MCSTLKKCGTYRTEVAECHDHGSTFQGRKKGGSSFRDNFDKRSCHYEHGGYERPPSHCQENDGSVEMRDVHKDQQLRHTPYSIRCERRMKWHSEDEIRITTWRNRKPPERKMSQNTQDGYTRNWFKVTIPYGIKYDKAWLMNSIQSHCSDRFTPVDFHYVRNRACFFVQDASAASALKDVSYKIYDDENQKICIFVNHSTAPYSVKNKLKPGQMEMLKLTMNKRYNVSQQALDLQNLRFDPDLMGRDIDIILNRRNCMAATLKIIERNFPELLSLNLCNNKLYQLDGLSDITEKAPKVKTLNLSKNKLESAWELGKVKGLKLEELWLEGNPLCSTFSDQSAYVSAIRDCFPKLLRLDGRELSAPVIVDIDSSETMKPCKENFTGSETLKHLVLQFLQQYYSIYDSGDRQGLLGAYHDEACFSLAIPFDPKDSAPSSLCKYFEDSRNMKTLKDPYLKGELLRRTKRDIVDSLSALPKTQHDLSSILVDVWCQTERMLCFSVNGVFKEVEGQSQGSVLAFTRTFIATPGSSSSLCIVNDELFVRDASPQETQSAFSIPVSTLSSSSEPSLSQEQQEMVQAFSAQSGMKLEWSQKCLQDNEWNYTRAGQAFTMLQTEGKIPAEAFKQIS
B2: NTF2-related export protein 2 (Homo sapiens), Q9NPJ8-3 (parent)
chain: B1 chain
partner: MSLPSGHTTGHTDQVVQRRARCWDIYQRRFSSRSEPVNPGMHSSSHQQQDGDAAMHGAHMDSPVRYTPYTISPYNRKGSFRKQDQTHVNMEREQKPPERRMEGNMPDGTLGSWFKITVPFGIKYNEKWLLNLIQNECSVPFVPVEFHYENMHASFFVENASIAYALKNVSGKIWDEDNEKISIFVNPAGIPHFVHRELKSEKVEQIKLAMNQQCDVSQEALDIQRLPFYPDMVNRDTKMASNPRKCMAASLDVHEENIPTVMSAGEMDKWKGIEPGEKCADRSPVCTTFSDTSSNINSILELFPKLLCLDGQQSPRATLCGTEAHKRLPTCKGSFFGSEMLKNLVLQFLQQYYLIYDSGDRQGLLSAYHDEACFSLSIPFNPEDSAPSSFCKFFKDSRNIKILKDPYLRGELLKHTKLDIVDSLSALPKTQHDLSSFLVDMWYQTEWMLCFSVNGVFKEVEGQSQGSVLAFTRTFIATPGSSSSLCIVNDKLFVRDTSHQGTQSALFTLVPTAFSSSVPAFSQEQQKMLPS

Variants of: B1
Settings: with nxf2_human NXF2B

effect of a mutation on the interaction	Variant
with no effect	MRKYRSHWSQGDREGYQRRSNYYEGPHTSHSSPADRTREEVVTPTLPEHTATRSQMATSLDFKTYVDQACRAAEEFVNIYYETMDKRRRSLTRLYLDKATLIWNGNAVSGLDALNNFFDTLPSSEFQVNMLDCQPVHEQATQSQTTVLVVTSGTVKFDGNKQHFFNQNFLLTAQSTPNNTVWKIASDCFRFQDWSSS

Variants of: B2
Settings: with NXF3, Q9H4D5-1

effect of a mutation on the interaction	Variant
with no effect	MRKYRSHWSQGDREGYQRRSNYYEGPHTSHSSPADRTREEVVTPTLPEHTATRSQMATSLDFKTYVDQACRAAEEFVNIYYETMDKRRRSLTRLYLDKATLIWNGNAVSGLDALNNFFDTLPSSEFQVNMLDCQPVHEQATQSQTTVLVVTSGTVKFDGNKQHFFNQNFLLTAQSTPNNTVWKIASDCFRFQDWSSS

From IntAct's records for PubMed 40624043
